Measurements from publication PMC3759463 (PLoS ONE, 2013).
Read-outs that look alike come from different tables or passages of the source. Peptide text beside a SMILES is read from it.

Assays:
[1] = biological target: HLA-DRB1*01∶01 (recombinant HLA-DR alpha chain with FOS zipper paired with HLA-DRB1*01∶01 beta chain with JUN zipper and BSP); test: AlphaScreen or HTRF
[2] = biological target: HLA-DRB5*01∶01 (recombinant HLA-DR alpha chain with FOS zipper paired with HLA-DRB5*01∶01 beta chain with JUN zipper and BSP); test: AlphaScreen or HTRF
[3] = biological target: HLA-DRB1*15∶01 (recombinant HLA-DR alpha chain with FOS zipper paired with HLA-DRB1*15∶01 beta chain with JUN zipper and BSP); test: AlphaScreen or HTRF
HLA-DRB1*15∶01 = biological target: T1, HLA-DRB1*15∶01 (Homo sapiens, UniProt P01903+P01911); test: biochemical; type: binding; conditions: C-terminally H6-tagged peptide, read-out: KD (nM) HLA-DRB1*15∶01 + tag
T1 construct: expression of transmembrane-truncated versions of isolated α and in vivo biotinylated β chain molecules in E. coli; made in house

HLA-DRB5*01∶01 = biological target: T2, HLA-DRB5*01∶01 (Homo sapiens, UniProt P01903+Q30154); test: biochemical; type: binding
T2 construct: expression of transmembrane-truncated versions of isolated α and in vivo biotinylated β chain molecules in E. coli; made in house

HLA-DRB1*01∶01 = biological target: T3, HLA-DRB1*01∶01 (Homo sapiens, UniProt P01903+P01911, A100R/D57E/F55L/F60I/F76Y/I96L/L162R/M171V/P40L/Q125E/R42F/V115G/Y59C); test: biochemical; type: binding; conditions: C-terminally H6-tagged peptide, read-out: KD (nM) HLA-DRB1*01∶01 + tag
T3 construct: expression of transmembrane-truncated versions of isolated α and in vivo biotinylated β chain molecules in E. coli; made in house

[4] = C-terminally H6-tagged peptide, […], read-out: KD (nM) HLA-DRB5*01∶01 + tag

Row | Compound | Kd [1] | Kd [2] | Kd [3] | Kd (HLA-DRB1*15∶01) | Kd (HLA-DRB5*01∶01; [4]) | Kd (HLA-DRB1*01∶01) | Kd (HLA-DRB5*01∶01; read-out: KD (nM) HLA-DRB5*01∶01 − tag)
1 | cytomegalovirus (CMV) peptide IE1_(211–225(H6)) | 42 nM | 8 nM | 127 nM |  |  |  | 
2 | Hepatitis C (Hep C) peptide NS3_(218–235) | 3 nM |  | 2 nM |  |  |  | 
3 | Influenza A peptide HA_(307–318) | 9 nM | 4 nM | 25 nM |  |  |  | 
4 | CC(C)C[C@H](NC(=O)[C@@H](NC(=O)[C@H](Cc1ccccc1)NC(=O)[C@@H](NC(=O)[C@H](Cc1ccccc1)NC(=O)CNC(=O)[C@@H](N)CC(C)C)C(C)C)[C@@H](C)O)C(=O)N[C@H](C(=O)N[C@H](C(=O)N1CCC[C@H]1C(=O)N[C@@H](CO)C(=O)N[C@@H](CCC(=O)O)C(=O)N[C@@H](CCCNC(=N)N)C(=O)NCC(=O)N[C@@H](Cc1c[nH]cn1)C(=O)N[C@@H](Cc1c[nH]cn1)C(=O)N[C@@H](Cc1c[nH]cn1)C(=O)N[C@@H](Cc1c[nH]cn1)C(=O)N[C@@H](Cc1c[nH]cn1)C(=O)N[C@@H](Cc1c[nH]cn1)C(=O)O)C(C)C)[C@@H](C)O [Influenza A MP60–72 + tag] (H-LGFVFTLTVPSERGHHHHHH-OH) |  |  |  | 282 nM | 13 nM | 40 nM | 
5 | Influenza A peptide MP_(60–73) | 17 nM | 7 nM | 270 nM |  |  |  | 
6 | Influenza A peptide HA_(307–318(H6)) | 19 nM | 17 nM | 345 nM |  |  |  | 
7 | cytomegalovirus (CMV) peptide IE1_(211–225) |  | 8 nM |  |  |  |  | 
8 | CC(C)C[C@H](NC(=O)[C@@H](NC(=O)[C@H](Cc1ccccc1)NC(=O)[C@@H](NC(=O)[C@H](Cc1ccccc1)NC(=O)CNC(=O)[C@@H](N)CC(C)C)C(C)C)[C@@H](C)O)C(=O)N[C@H](C(=O)N[C@H](C(=O)N1CCC[C@H]1C(=O)N[C@@H](CO)C(=O)N[C@@H](CCC(=O)O)C(=O)N[C@@H](CCCNC(=N)N)C(=O)NCC(=O)O)C(C)C)[C@@H](C)O [Influenza A MP60–72, reference compound] |  |  |  |  |  |  | 7 nM
9 | Influenza A peptide MP_(60–73(H6)) | 40 nM | 13 nM | 282 nM |  |  |  | 
10 | CC(C)C[C@H](NC(=O)[C@H](CCCCN)NC(=O)[C@H](CC(C)C)NC(=O)[C@@H](NC(=O)[C@H](CC(N)=O)NC(=O)[C@H](CCC(N)=O)NC(=O)[C@H](CCCCN)NC(=O)[C@@H](NC(=O)[C@H](Cc1ccc(O)cc1)NC(=O)[C@H](CCCCN)NC(=O)[C@@H](N)Cc1ccc(O)cc1)C(C)C)[C@@H](C)O)C(=O)N[C@@H](C)C(=O)N[C@H](C(=O)N[C@@H](Cc1c[nH]cn1)C(=O)N[C@@H](Cc1c[nH]cn1)C(=O)N[C@@H](Cc1c[nH]cn1)C(=O)N[C@@H](Cc1c[nH]cn1)C(=O)N[C@@H](Cc1c[nH]cn1)C(=O)N[C@@H](Cc1c[nH]cn1)C(=O)O)[C@@H](C)O [Influenza A HA306–318 + tag] (H-YKYVKQNTLKLATHHHHHH-OH) |  |  |  | 345 nM | 17 nM |  | 
11 | Hepatitis C peptide Hep C-NS3_(218–235(H6)) | 5 nM | 37 nM | 2 nM |  |  |  | 
